One data set has as its target SphK1 (Homo sapiens, UniProt Q9NYA1). The settings on record: read-out: Km with respect to sphingosine, SphK1, previously reported; cited from earlier work.
Substrate in data set [1]: Nc1ncnc2c1ncn2[C@@H]1O[C@H](COP(=O)(O)OP(=O)(O)OP(=O)(O)O)[C@@H](O)[C@H]1O
Description: purified protein, by the assay type. As to conditions: other: FlashPlate; 5–10 μM sphingosine, ATP 0–600 μM; 37.0 °C.

Substrate in data set [2]: CCCCCCCCc1ccc(CCC(N)(CO)CO)cc1
Kind of data set: 96-well FlashPlate SphK assay, SphK2. The format is biochemical. The settings on record: other: FlashPlate; FTY720 as selective SphK2 substrate; 37.0 °C.

Substrate in data set [3]: CCCCCCCCCCCCC/C=C/[C@@H](O)[C@@H](N)CO
Kind of data set: 96-well FlashPlate SphK assay, SphK2. The format is biochemical. The settings on record: other: FlashPlate; ATP fixed at 250 μM, sphingosine 0–50 μM; 37.0 °C.

With `CCCCCCCCCCCCC/C=C/[C@@H](O)[C@@H](N)CO` [sphingosine, D-erythro-sphingosine], on SphK1, the Km – broadly, the substrate concentration at which the rate is half of its maximum – was 5 to 17 µM.

B1: SphK2 (Homo sapiens) (protein)
chain: MNGHLEAEEQQDQRPDQELTGSWGHGPRSTLVRAKAMAPPPPPLAASTPLLHGEFGSYPARGPRFALTLTSQALHIQRLRPKPEARPRGGLVPLAEVSGCCTLRSRSPSDSAAYFCIYTYPRGRRGARRRATRTFRADGAATYEENRAEAQRWATALTCLLRGLPLPGDGEITPDLLPRPPRLLLLVNPFGGRGLAWQWCKNHVLPMISEAGLSFNLIQTERQNHARELVQGLSLSEWDGIVTVSGDGLLHEVLNGLLDRPDWEEAVKMPVGILPCGSGNALAGAVNQHGGFEPALGLDLLLNCSLLLCRGGGHPLDLLSVTLASGSRCFSFLSVAWGFVSDVDIQSERFRALGSARFTLGTVLGLATLHTYRGRLSYLPATVEPASPTPAHSLPRAKSELTLTPDPAPPMAHSPLHRSVSDLPLPLPQPALASPGSPEPLPILSLNGGGPELAGDWGGAGDAPLSPDPLLSSPPGSPKAALHSPVSEGAPVIPPSSGLPLPTPDARVGASTCGPPDHLLPPLGTPLPPDWVTLEGDFVLMLAISPSHLGADLVAAPHARFDDGLVHLCWVRSGISRAALLRLFLAMERGSHFSLGCPQLGYAAARAFRLEPLTPRGVLTVDGEQVEYGPLQAQMHPGIGTLLTGPPGCPGREP
For B1, the Km in data set [1] was 79 µM; in data set [2], 22 µM; in data set [3], 6 µM.

B2: SphK1 (Homo sapiens) (protein)
chain: MSAQVLGFLRSWTPLPLAAPRGPAAAGNDAGAPAATAPGGEGEPHSRPCDARLGSTDKELKAGAAATGSAPTAPGTPWQREPRVEVMDPAGGPRGVLPRPCRVLVLLNPRGGKGKALQLFRSHVQPLLAEAEISFTLMLTERRNHARELVRSEELGRWDALVVMSGDGLMHEVVNGLMERPDWETAIQKPLCSLPAGSGNALAASLNHYAGYEQVTNEDLLTNCTLLLCRRLLSPMNLLSLHTASGLRLFSVLSLAWGFIADVDLESEKYRRLGEMRFTLGTFLRLAALRTYRGRLAYLPVGRVGSKTPASPVVVQQGPVDAHLVPLEEPVPSHWTVVPDEDFVLVLALLHSHLGSEMFAAPMGRCAAGVMHLFYVRAGVSRAMLLRLFLAMEKGRHMEYECPYLVYVPVVAFRLEPKDGKGVFAVDGELMVSEAVQGQVHPNYFWMVSGCVEPPPSWKPQQMPPPEEPL
For the molecule B2, in data set [1], the Km stood at 125 µM.

The values are drawn from publication PMC3049835 (Analytical biochemistry, 2011).
